Kd, koff and kon data for 2 molecules are collected here from publication PMC2567969.

Assay [1] concerns the target EGF receptor (Homo sapiens) (UniProt P00533). As to conditions: cited from earlier work.
Assay [2] deals with Ik2-MBPHis fusion protein (Drosophila). Briefly: SPR; ProteOn XPR36, GLC chip; Ik2-MBPHis (1400 RU) and Sec13-MBP (5500 RU) amine-coupled; Spn-F injected at six concentrations 0.1625 to 5 μM; PBS pH 7.4, 0.005% Tween 20, 25°C; global fit to 1:1 Langmuir model. For orientation: In SPR one partner is held on a chip, and binding of the other changes the refractive index at the surface.

Take EGF (from UniProt P01133): in assay [1], the Kd is 410 nM.

B1: Spn-F, recombinant, MBP-His6 tag cleaved (natural protein)
chain: MEASAAKITPMASSMSASGSTNSPSSEKMNYALQVALQTIKERCIQLQRRVASMEEENQQLREASSRSEGAPRANEIGVTGDVLSLKAQVSELQRQKEQLEEHIGMVSNENRRLWSRLSQISKDQQLNALPSSTDSRAQQNQNLVRSKTFTQHSPNPHLRQKMLSDGIKDLSLEEIALDDFGASSEELGYPYNLQKVEETTSEPDANVDAKRCLDGLQELRREAMKQQQELRSVMTLLENRIALKPCPECAQKTIKKPEMADKSLETDDSLTSELKNYESQHNGHNGTPPSQRINIIQEKIKADAADAMEKTCPMCGKQYSSQVSFNAFREHVEMHFIDDALELESENSIERQFEFVSHAVGDF
In the case of B1, in assay [2], the Kd came to 407 nM, the koff worked out at 0.00169 s⁻¹ and the kon stood at 4150 M⁻¹ s⁻¹.

As a reminder, the Kd is the constant that tells how readily two partners part at equilibrium. By koff is commonly meant the first-order rate constant of dissociation. Higher therefore signals fast dissociation. Broadly, the kon is the rate constant with which the complex forms. A lower kon goes with slower complex formation.
